Experimental data published in patent US20240360189A1 (LUXEMBOURG INSTITUTE OF HEALTH LIH, published 2024).

Target: T1, HER2 on BT474 breast tumour cells (human, UniProt P04626 23-1255)
T1 construct: whole, on cells; also called HER2-positive BT474 cells
Assay: flow cytometry, cross-linking of NK92MI and BT474 cells (data not shown)

B1: Z199 scFv anti-NKG2A.C4bp(beta).Fc[knob]/2D3 VHH anti-HER2.C4bp(beta).Fc[hole] bispecific pseudo-IgG (bispecific antibody)
chain 1: RSQVKLQQSGGGLVKPGGSLKLSCAASGFTFSSYAMSWVRQSPEKRLEWVAEISSGGSYTYYPDTVTGRFTISRDNAKNTLYLEISSLRSEDTAMYYCTRHGDYPRFFDVWGAGTTVTVSSGGGGSGGGGSGGGGSQIVLTQSPALMSASPGEKVTMTCSASSSVSYIYWYQQKPRSSPKPWIYLTSNLASGVPARFSGSGSGTSYSLTISSMEAEDAATYYCQQWSGNPYTFGGGTKLEIKRAAASGAGGGGSSGAGGSAGGGGSSGGGGSAGGGGSIQEAPKPECEKALLAFQESKNLCEAMENFMQQLKESGMTMEELKYSLELKKAELKAKLLEPKSCDKTHTCPPCPAPELLGGPSVFLFPPKPKDTLMISRTPEVTCVVVDVSHEDPEVKFNWYVDGVEVHNAKTKPREEQYNSTYRVVSVLTVLHQDWLNGKEYKCKVSNKALPAPIEKTISKAKGQPREPQVYTLPPCRDELTKNQVSLWCLVKGFYPSDIAVEWESNGQPENNYKTTPPVLDSDGSFFLYSALTVDKSRWQQGNVFSCSVMHEALHNHYTQKSLSLSPGK
chain 2: not shown
notes: also called Z199/2D3
  binding result: binds
